The data set deals with NC(=O)c1ccc[n+]([C@@H]2O[C@H](COP(=O)([O-])OP(=O)(O)OC[C@H]3O[C@@H](n4cnc5c(N)ncnc54)[C@H](O)[C@@H]3O)[C@@H](O)[C@H]2O)c1. Kind of data set: purified protein. It is filed as biochemical, Homo sapiens.

Experimental findings from PMC2752052 are described below.

Consider CD38 (Homo sapiens), for which the Km stood at 17 ± 6 µM.
